Results on two molecules are retold here after patent US20100304465A1.

Among the targets are micro-plasmin (UniProt P00747); mini-plasmin (human) (UniProt P00747); plasmin (human) (UniProt P00747).
What all share (assay): cell-based or functional assay
Assay [1] concerns the target delta-plasmin (human (recombinant deletion mutant of human plasminogen, made in E. coli)) (UniProt P00747).

B1: α2-antiplasmin (protein, UniProt P08697 40-491, looked up)
chain: NQEQVSPLTLLKLGNQEPGGQTALKSPPGVCSRDPTPEQTHRLARAMMAFTADLFSLVAQTSTCPNLILSPLSVALALSHLALGAQNHTLQRLQQVLHAGSGPCLPHLLSRLCQDLGPGAFRLAARMYLQKGFPIKEDFLEQSEQLFGAKPVSLTGKQEDDLANINQWVKEATEGKIQEFLSGLPEDTVLLLLNAIHFQGFWRNKFDPSLTQRDSFHLDEQFTVPVEMMQARTYPLRWFLLEQPEIQVAHFPFKNNMSFVVLVPTHFEWNVSQVLANLSWDTLHPPLVWERPTKVRLPKLYLKHQMDLVATLSQLGLQELFQAPDLRGISEQSLVVSGVQHQSTLELSEVGVEAAAATSIAMSRMSLSSFSVNRPFLFFIFEDTTGLPLFVGSVRNPNPSAPRELKEQQDSPGNKDFLQSLKGFPRGDKLFGPDLKLVPPMEEDYPQFGSPK
Turning to B1, the fold change of inhibition rate against micro-plasmin or mini-plasmin in assay [1] worked out at 40 fold. Moreover, the inhibition rate (22° C., PBS, pH 7.4; residual S-2251 activity) in assay [1] stood at 1.1e+07 M^-1s^-1; with micro-plasmin, 180000 M^-1s^-1; with mini-plasmin (human), 240000 M^-1s^-1. Moreover, the inhibition rate (second separate experiment; residual S-2251 activity) with micro-plasmin amounted to 310000 M⁻¹ s⁻¹.

B2: α2-macroglobulin (protein, UniProt P01023 24-1474, looked up)
chain: SVSGKPQYMVLVPSLLHTETTEKGCVLLSYLNETVTVSASLESVRGNRSLFTDLEAENDVLHCVAFAVPKSSSNEEVMFLTVQVKGPTQEFKKRTTVMVKNEDSLVFVQTDKSIYKPGQTVKFRVVSMDENFHPLNELIPLVYIQDPKGNRIAQWQSFQLEGGLKQFSFPLSSEPFQGSYKVVVQKKSGGRTEHPFTVEEFVLPKFEVQVTVPKIITILEEEMNVSVCGLYTYGKPVPGHVTVSICRKYSDASDCHGEDSQAFCEKFSGQLNSHGCFYQQVKTKVFQLKRKEYEMKLHTEAQIQEEGTVVELTGRQSSEITRTITKLSFVKVDSHFRQGIPFFGQVRLVDGKGVPIPNKVIFIRGNEANYYSNATTDEHGLVQFSINTTNVMGTSLTVRVNYKDRSPCYGYQWVSEEHEEAHHTAYLVFSPSKSFVHLEPMSHELPCGHTQTVQAHYILNGGTLLGLKKLSFYYLIMAKGGIVRTGTHGLLVKQEDMKGHFSISIPVKSDIAPVARLLIYAVLPTGDVIGDSAKYDVENCLANKVDLSFSPSQSLPASHAHLRVTAAPQSVCALRAVDQSVLLMKPDAELSASSVYNLLPEKDLTGFPGPLNDQDNEDCINRHNVYINGITYTPVSSTNEKDMYSFLEDMGLKAFTNSKIRKPKMCPQLQQYEMHGPEGLRVGFYESDVMGRGHARLVHVEEPHTETVRKYFPETWIWDLVVVNSAGVAEVGVTVPDTITEWKAGAFCLSEDAGLGISSTASLRAFQPFFVELTMPYSVIRGEAFTLKATVLNYLPKCIRVSVQLEASPAFLAVPVEKEQAPHCICANGRQTVSWAVTPKSLGNVNFTVSAEALESQELCGTEVPSVPEHGRKDTVIKPLLVEPEGLEKETTFNSLLCPSGGEVSEELSLKLPPNVVEESARASVSVLGDILGSAMQNTQNLLQMPYGCGEQNMVLFAPNIYVLDYLNETQQLTPEIKSKAIGYLNTGYQRQLNYKHYDGSYSTFGERYGRNQGNTWLTAFVLKTFAQARAYIFIDEAHITQALIWLSQRQKDNGCFRSSGSLLNNAIKGGVEDEVTLSAYITIALLEIPLTVTHPVVRNALFCLESAWKTAQEGDHGSHVYTKALLAYAFALAGNQDKRKEVLKSLNEEAVKKDNSVHWERPQKPKAPVGHFYEPQAPSAEVEMTSYVLLAYLTAQPAPTSEDLTSATNIVKWITKQQNAQGGFSSTQDTVVALHALSKYGAATFTRTGKAAQVTIQSSGTFSSKFQVDNNNRLLLQQVSLPELPGEYSMKVTGEGCVYLQTSLKYNILPEKEEFPFALGVQTLPQTCDEPKAHTSFQISLSVSYTGSRSASNMAIVDVKMVSGFIPLKPTVKMLERSNHVSRTEVSSNHVLIYLDKVSNQTLSLFFTVLQDVPVRDLKPAIVKVYDYYETDEFAIAEYNAPCSKDLGNA
Consider B2, for which the inhibition rate (22° C., PBS, pH 7.4) in assay [1] was found to be 760000 M^-1s^-1; in the assay with micro-plasmin it was 780000 M^-1s^-1; with mini-plasmin (human), 750000 M^-1s^-1; with plasmin (human), 650000 M^-1s^-1.
